This note sets out measurements from patent US6544520B1, “Hepatitis B virus inhibitors” (priority 1996, dated 2003).

“And” between values parts separate entries of the source, which are not always exact repeats. Identical values can stand only once. Like-named read-outs stand apart in the source and are kept apart here. Non-standard residues stand in square brackets, D forms with d. Residues, ends and D or L forms follow the SMILES beside them. No end group written: not given here. βAla = NCCC(=O)O

Assay [1] addresses T1, association of L HBsAg with HBcAg (Hepatitis B virus genotype D subtype adw, UniProt P03147).
T1 construct: Purification of Particles Comprising Full-Length or Truncated HBcAg; made in house; host or cells: HBcAg: E. coli RB 791; L HBsAg: in vitro translation in rabbit reticulocyte lysate with canine pancreatic microsomal membranes
Kind of assay: biochemical. In kind it is binding. To be noted: for IC50: IC50: concentration of peptide required to inhibit the binding of L HBsAg to HBcAg at a half maximal level; for IC50 / IC50: concentration of peptide required to inhibit the binding of L HBsAg to HBcAg at a half maximal level: free peptide, HBcAg-coated wells. The protocol:
Inhibitors of the Association of HBsAg with HBcAg. The assay system developed for inhibitors of the interaction between HBsAg and HBcAg involved incubating purified membrane-inserted ^35S-labeled L polypeptide in HBcAg-coated wells and quantitating bound protein by scintillation counting. […] The principal target for polyclonal antibodies to the native, particulate S HBsAg resides between as 110 and aa 150 (31-33). […] However, large molecules, such as immunoglobulins, can cause stearic hindrance over a considerable distance in any compound to which they bind.
Inhibition of Membrane-Inserted L-Protein Binding to HBcAg by Antibodies and Peptides. Canine pancreatic microsomal membranes containing labeled protein were purified by layering the translation mixture (60 μl) on a 4-ml step gradient of 1-ml intervals of 77% (wt/vol), 30%, 20%, and 10% sucrose containing 20 mM Hepes (adjusted to pH 7.5 with NaOH)/2 mM dithiothreitol for fractionation by centrifugation (50,000 rpm, 2 hr at 4° C.; Sorvall model TsT 60.4 rotor). […] Sucrose gradient-purified L protein (4 μl) was diluted with NET-gel buffer (100 μl) containing various dilutions of either antibody or peptide for inhibition assays. Mixtures were incubated in HBcAg-coated wells (as in the paragraph Isolation of Phage that Bind to HBcAg) for 2 ½ hr at 4° C. and washed five times with NET-gel buffer with 10-min intervals. Wells were placed in scintillation vials containing Ecoscint A (5 ml; National Diagnostics) for quantitation of radioactivity.

The target in assay [2] is hepatitis B virus core antigen (HBcAg) (hepatitis B virus). Kind of assay: peptide inhibition of 35S-labeled L HBsAg binding to HBcAg-coated wells.
Sequence of hepatitis B virus core antigen (HBcAg) (hepatitis B virus) (P03147 whole entry): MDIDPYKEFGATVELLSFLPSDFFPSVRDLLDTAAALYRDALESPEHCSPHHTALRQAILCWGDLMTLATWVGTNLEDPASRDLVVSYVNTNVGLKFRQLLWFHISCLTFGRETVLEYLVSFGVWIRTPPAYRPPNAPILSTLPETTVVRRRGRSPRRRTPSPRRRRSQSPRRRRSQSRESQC
For assay [3] the target is unchanged. Described as above. This is another data set of the same source.
A further assay addresses T2, HBcAg (Hepatitis B virus genotype D subtype adw, UniProt P03147).
T2 construct: Purification of Particles Comprising Full-Length or Truncated HBcAg; made in house; host or cells: E. coli RB 791
Kind of assay: Peptide inhibition of fusion phage binding to HBcAg-coated wells. The protocol: Phage-Binding Assay in Solution. […] Aliquots (100 μl) of each mixture were transferred to polystyrene wells (no. 2585, Costar) that had been coated with HBcAg (20 μg/ml in PBS; 125 μl per well). After 1 hr at 6° C. the wells were washed 10 times with TBS/BSA at 0.2 mg/ml. Bound phage were recovered and titered as described in the previous section. All assays were done in triplicate. The HBcAg concentration range was 1.58-50 μM for experiments with phage B2 and B3 and was 0.63-20 μM for experiments with phage B4. For peptide inhibition experiments, fusion phage (10^9 pfu/ml; 200 μl) were incubated with various concentrations of peptide (1 mM-10 nM) in HBcAg-coated wells for 90 min at 6° C.

Assay [4] has as its target hepatitis B virus core antigen (HBcAg) (hepatitis B virus). Description: phage-binding assay in solution: phage incubated with HBcAg, free phage caught on HBcAg-coated wells and titered.

T1 sequence (P03147 whole entry, the tested form may be a part): as the sequence (P03147 whole entry) above
T2 sequence (P03147 whole entry, the tested form may be a part): as the sequence (P03147 whole entry) above

A word on the IC50: it is the midpoint of a concentration-inhibition curve. Low readings indicate higher potency, high ones lower potency. Regarding SLLGRMKGA, the concentration for half-maximal inhibition (IC50) in assay [1] amounted to 2.4 ± 0.2 µM.
Consider peptide ALLGRMKG, for which the figures for the IC50 in assay [2] and in assay [3] were 10 µM and 11 µM, respectively.
In assay [3], peptide AcSLLGRMKG had an IC50 of 26.2 µM.
As for `CSCC[C@H](NC(=O)[C@H](CCCNC(=N)N)NC(=O)CNC(=O)[C@H](CC(C)C)NC(=O)[C@H](CC(C)C)NC(=O)[C@H](CO)NC(=O)[C@@H](N)CCCNC(=N)N)C(=O)N[C@@H](CCCCN)C(=O)NCC(=O)N[C@@H](C)C(=O)O`, the IC50 in assay [1] amounted to 0.29 ± 0.02 µM. Further, in assay [1] (inhibition of L HBsAg binding to HBcAg), the “fold improvement over the original ALLGRMKG peptide” value is on record as over 40 fold.
For `CSCC[C@H](NC(=O)[C@H](CCCNC(=N)N)NC(=O)CNC(=O)[C@H](CC(C)C)NC(=O)[C@H](CC(C)C)NC(=O)[C@@H](N)CO)C(=O)N[C@@H](CCCCN)C(=O)NCC(=O)NCCC(=O)N[C@@H](CS)C(=O)O` (H-SLLGRMKG[βAla]C-OH), in assay [1], the IC50 turned out to be 1.8 ± 0.4 µM.
In assay [3], peptide SLLGRMKG came in with a half-inhibitory concentration (IC50) of 6.4 µM.
Take ALLGRMKG: the concentration for half-maximal inhibition (IC50) in assay [1] is 10 µM and 11 µM.
`CSCC[C@H](NC(=O)[C@H](CCCNC(=N)N)NC(=O)CNC(=O)[C@H](CC(C)C)NC(=O)[C@H](CC(C)C)NC(=O)[C@H](CO)NC(=O)CNC(=O)[C@H](CC(=O)O)NC(=O)[C@H](C)N)C(=O)N[C@@H](CCCCN)C(=O)NCC(=O)N[C@@H](C)C(=O)N[C@@H](C)C(=O)NCC(=O)O` showed an IC50 in assay [1] of 4.5 ± 0.8 µM.
Still for that read-out and setting: as for LLGRMKG [LLGRMKG], the figure is 46.2 ± 7.4 µM.
The same measure, in the same setting: as for HRSLLGRMKGA, the figure is 0.5 ± 0.04 µM.
With ALLPRMKG, the “IC50: concentration of peptide required to inhibit the binding of L HBsAg to HBcAg at a half maximal level” value in assay [1] was “no”.
Same read-out and setting: as for LLGRM (not fully specified), the entry is “no”.
In assay [2], peptide LDPAFR registered an IC50 of 360 µM.
In the case of `CSCC[C@H](NC(=O)[C@H](CCCNC(=N)N)NC(=O)CNC(=O)[C@H](CC(C)C)NC(=O)[C@H](CC(C)C)NC(=O)[C@H](CO)NC(=O)[C@H](CCCNC(=N)N)NC(=O)[C@H](Cc1c[nH]cn1)NC(=O)[C@@H](N)CCSC)C(=O)N[C@@H](CCCCN)C(=O)NCC(=O)N[C@@H](C)C(=O)NCC(=O)NCCC(=O)NCC(=O)N[C@@H](CS)C(=O)O`, the half-maximal inhibitory concentration (IC50) in assay [1] came to 3.8 ± 0.69 µM.
Turning to GRMKG (not fully specified), in assay [1], the “inhibition of the reaction between L HBsAg and HBcAg (in words)” value is reported as “no inhibitory properties”; the “IC50: concentration of peptide required to inhibit the binding of L HBsAg to HBcAg at a half maximal level” value is listed as “no^2”. Also, in the assay with HBcAg, the “inhibition of binding of fusion phage to HBcAg” value was “inability to inhibit”.
For SLLGRMK [SLLGRMK], in assay [1], the 50% inhibitory concentration (IC50) was 40.7 ± 4.8 µM.
As to SLLGRMKG, the 50% inhibitory concentration (IC50) in assay [1] stood at 6.4 ± 0.7 µM.
Same read-out and setting: to `CSCC[C@H](NC(=O)[C@H](CCCNC(=N)N)NC(=O)CNC(=O)[C@H](CC(C)C)NC(=O)[C@H](CC(C)C)NC(=O)[C@H](CO)NC(=O)CNC(=O)[C@@H](N)CC(=O)O)C(=O)N[C@@H](CCCCN)C(=O)NCC(=O)N[C@@H](C)C(=O)N[C@@H](C)C(=O)O` belongs 3 ± 0.4 µM; to LDPAFR [LDPAFR, reference compound], about 360 µM.
The molecule peptide LGRMKG returned a half-maximal inhibitory concentration (IC50) in assay [3] of 980 µM.
As for Ac-SLLGRMKG, the 50% inhibitory concentration (IC50) in assay [1] stood at 26.2 ± 5 µM.
In turn, peptide CLLGRMKC yielded a concentration for half-maximal inhibition (IC50) in assay [3] of 652 µM.
Still for that read-out and setting: to peptide SLLGRMKG(β-A)C belongs 1.8 µM.
In assay [1], LGRMKG [LGRMKG] showed an IC50 of 980 ± 157 µM.
Same read-out and setting: as for `CSCC[C@H](NC(=O)[C@H](CCCNC(=N)N)NC(=O)CNC(=O)[C@H](CC(C)C)NC(=O)[C@H](CC(C)C)NC(=O)[C@H](CO)NC(=O)CN)C(=O)N[C@@H](CCCCN)C(=O)NCC(=O)N[C@@H](C)C(=O)O`, the figure is 0.79 ± 0.23 µM; as for `CSCC[C@H](NC(=O)[C@H](CCCNC(=N)N)NC(=O)CNC(=O)[C@H](CC(C)C)NC(=O)[C@H](CC(C)C)NC(=O)[C@H](CO)NC(=O)[C@@H](N)CCCNC(=N)N)C(=O)N[C@@H](CCCCN)C(=O)NCC(=O)N[C@@H](C)C(=O)NCCC(=O)N[C@@H](CS)C(=O)O`, 0.29 ± 0.03 µM.
In the case of `CSCC[C@H](NC(=O)[C@H](CCCNC(=N)N)NC(=O)CNC(=O)[C@H](CC(C)C)NC(=O)[C@H](CC(C)C)NC(=O)[C@H](CO)NC(=O)[C@H](CCCNC(=N)N)NC(=O)[C@H](Cc1cnc[nH]1)NC(=O)[C@@H](N)CCSC)C(=O)N[C@@H](CCCCN)C(=O)NCC(=O)N[C@@H](C)C(=O)O`, the IC50 in assay [1] worked out at 0.8 ± 0.1 µM.
In assay [3], peptide LLGRMKG displayed an IC50 of 46.2 µM.
On the same count and under the same terms, as for peptide SLLGRMK, the figure is 40.7 µM.
Take “ALLTRILG (HBV Core Antigen Binding Peptide) [peptide including aa 21-27 of the S region, reference compound]”: the “inhibition of the reaction between L HBsAg and HBcAg (in words)” value in assay [1] was “no inhibitory properties”. Also, the “inhibition of binding of fusion phage to HBcAg” value with HBcAg is given as “inability to inhibit”.
ADGSRSSLLGRMKGA (peptide, not shown: large carriers) [phage 4A-1] returned a KD^Rel (relative dissociation constant) in assay [4] of 0.00196 µM.
Same read-out and setting: to ADGPRSSLLGRMKGA (peptide, not shown: large carriers) [phage 4A-2] belongs 0.00084 µM; to ADGHRSSLLGRMKGA (peptide, not shown: large carriers) [phage 4B-7], 0.0014 µM; to ADGALLGRMKRA (peptide, not shown: large carriers) [phage 6], 0.181 µM.
ADGAHRSLLGRMKGA (peptide, not shown: large carriers) [phage 4A-3] displayed a KD^Rel (relative dissociation constant) in assay [4] of 0.00094 µM.
The same measure, in the same setting: as for ADGSLLGRMKPA (peptide, not shown: large carriers) [phage 1], the figure is 0.322 µM; as for ADGALLGRMKPA (peptide, not shown: large carriers) [phage 2], 0.767 µM; as for ADRSLLGRMKGA (peptide, not shown: large carriers) [phage 2A-8], 0.00109 µM.
On the same count and under the same terms, as for ADGYQRSLLGRMKGA (peptide, not shown: large carriers) [phage 4A-28], the figure is 0.00088 µM; as for ADGTLLGRMKLA (peptide, not shown: large carriers) [phage 4], 0.02 µM; as for ADGTQRSLLGRMKGA (peptide, not shown: large carriers) [phage 4A-26], 0.00084 µM.
